Residue numbers refer to the chain shown, from its start. Values belong to the binder of their own block, whether it stands above or below them.
Tests used:
[1] = target: T1, human OX40 receptor, cell-expressed (DO11.10-hOX40) (human, UniProt P43489 29-277); assay: cell binding, DO11.10-hOX40 cells, soluble Fcab
T1 construct: also called CD134; TNFRSF4
T1 sequence: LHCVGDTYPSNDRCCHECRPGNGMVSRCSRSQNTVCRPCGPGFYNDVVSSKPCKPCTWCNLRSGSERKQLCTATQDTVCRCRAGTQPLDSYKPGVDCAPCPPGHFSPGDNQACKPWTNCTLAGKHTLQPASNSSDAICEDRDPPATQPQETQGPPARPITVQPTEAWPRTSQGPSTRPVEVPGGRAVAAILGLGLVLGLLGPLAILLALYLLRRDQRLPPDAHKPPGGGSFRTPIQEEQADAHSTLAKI

[2] = target: T2, human TNFRI (human, UniProt P19438 30-211, limits assumed); assay: SPR (Biacore T200), receptor on CM5 chip
T2 construct: Amine-coupled to a CM5 chip
T2 sequence (looked up): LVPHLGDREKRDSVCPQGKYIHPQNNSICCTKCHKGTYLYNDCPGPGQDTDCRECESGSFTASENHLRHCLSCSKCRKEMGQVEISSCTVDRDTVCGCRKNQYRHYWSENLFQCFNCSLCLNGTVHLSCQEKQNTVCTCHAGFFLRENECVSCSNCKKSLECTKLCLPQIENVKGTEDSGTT

[3] = target: T3, human TNFRII (human, UniProt P20333 23-257, limits assumed); assay: SPR (Biacore T200), receptor on CM5 chip
T3 construct: Amine-coupled to a CM5 chip
T3 sequence (looked up): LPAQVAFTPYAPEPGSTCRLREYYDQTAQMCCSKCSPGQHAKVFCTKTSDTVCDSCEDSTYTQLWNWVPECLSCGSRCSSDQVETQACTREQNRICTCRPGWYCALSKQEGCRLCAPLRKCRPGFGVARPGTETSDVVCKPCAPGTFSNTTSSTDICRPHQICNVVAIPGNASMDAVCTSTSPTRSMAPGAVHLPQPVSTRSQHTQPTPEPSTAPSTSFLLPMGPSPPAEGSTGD

[4] = target: T4, human CD40 (human, UniProt P25942 21-193, limits assumed); assay: SPR (Biacore T200), receptor on CM5 chip
T4 construct: Amine-coupled to a CM5 chip

[5] = target: T5, human NGFR (human, UniProt P08138 29-250, limits assumed); assay: SPR (Biacore T200), receptor on CM5 chip
T5 construct: Amine-coupled to a CM5 chip
T5 sequence (looked up): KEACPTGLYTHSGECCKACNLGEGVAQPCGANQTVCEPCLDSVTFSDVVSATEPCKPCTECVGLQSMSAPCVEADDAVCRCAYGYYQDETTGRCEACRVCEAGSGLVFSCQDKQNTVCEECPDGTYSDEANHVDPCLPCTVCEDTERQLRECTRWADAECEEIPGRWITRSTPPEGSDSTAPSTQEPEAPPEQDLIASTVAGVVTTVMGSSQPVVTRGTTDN

[6] = target: T6, human CD137 (human, UniProt Q07011 24-186, limits assumed); assay: SPR (Biacore T200), receptor on CM5 chip
T6 construct: Amine-coupled to a CM5 chip; also called 4-1BB

T4 sequence (P25942 21-193 limits assumed): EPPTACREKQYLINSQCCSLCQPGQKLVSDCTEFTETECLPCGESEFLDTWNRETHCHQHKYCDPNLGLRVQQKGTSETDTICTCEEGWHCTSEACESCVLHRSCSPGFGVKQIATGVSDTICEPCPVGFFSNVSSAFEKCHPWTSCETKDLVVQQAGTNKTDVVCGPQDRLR

binding result [1]: binds
B1: Fcab FS20-22 (designed binder)
chain: TCPPCPAPELLGGPSVFLFPPKPKDTLMISRTPEVTCVVVDVSHEDPEVKFNWYVDGVEVHNAKTKPREEQYNSTYRVVSVLTVLHQDWLNGKEYKCKVSNKALPAPIEKTISKAKGQPREPQVYTLPPSRDEYWDQEVSLTCLVKGFYPSDIAVEWESNGQPENNYKTTPPVLDSDGSFFLYSKLTVDQYRWNPGGYFSCSVMHEALHNHYTQKSLSLSPG
notes: Soluble Fcab

binding result [1]: binds
B2: Fcab FS20-31 (designed binder)
chain: TCPPCPAPELLGGPSVFLFPPKPKDTLMISRTPEVTCVVVDVSHEDPEVKFNWYVDGVEVHNAKTKPREEQYNSTYRVVSVLTVLHQDWLNGKEYKCKVSNKALPAPIEKTISKAKGQPREPQVYTLPPSRDEYYSGEVSLTCLVKGFYPSDIAVEWESNGQPENDYKTTPPVLDSDGSFFLYSKLTVPYWRWGGPGTFSCSVMHEALHNHYTQKSLSLSPG
notes: Soluble Fcab

binding result [2]: no binding (tested: 1 µM) | binding result [3]: no binding (tested: 1 µM) | binding result [4]: no binding (tested: 1 µM) | binding result [5]: no binding (tested: 1 µM) | binding result [6]: no binding (tested: 1 µM)
B3: FS20-11-134AA/4420 (bispecific antibody, human IgG1, kappa, L234A L235A)
heavy: EVKLDETGGGLVQPGRPMKLSCVASGFTFSDYWMNWVRQSPEKGLEWVAQIRNKPYNYETYYSDSVKGRFTISRDDSKSSVYLQMNNLRVEDMGIYYCTGSYYGMDYWGQGTSVTVSSASTKGPSVFPLAPSSKSTSGGTAALGCLVKDYFPEPVTVSWNSGALTSGVHTFPAVLQSSGLYSLSSVVTVPSSSLGTQTYICNVNHKPSNTKVDKKVEPKSCDKTHTCPPCPAPEAAGGPSVFLFPPKPKDTLMISRTPEVTCVVVDVSHEDPEVKFNWYVDGVEVHNAKTKPREEQYNSTYRVVSVLTVLHQDWLNGKEYKCKVSNKALPAPIEKTISKAKGQPREPQVYTLPPSREEDDNDVSLTCLVKGFYPSDIAVEWESNGIPIGPYKTTPPVLDSDGSFFLYSKLTVDKSRWWKHYVEEHPFLCSVMHEALHNHYTQKSLSLSPG
light: DVVMTQTPLSLPVSLGDQASISCRSSQSLVHSNGNTYLRWYLQKPGQSPKVLIYKVSNRFSGVPDRFSGSGSGTDFTLKISRVEAEDLGVYFCSQSTHVPWTFGGGTKLEIKRTVAAPSVFIFPPSDEQLKSGTASVVCLLNNFYPREAKVQWKVDNALQSGNSQESVTEQDSKDSTYSLSSTLTLSKADYEKHKVYACEVTHQGLSSPVTKSFNRGEC
notes: Human IgG1 with anti-FITC 4420 Fab and LALA; The OX40 site is in the CH3 domain; also called FS20-11-134 Fcab in mock (4420 LALA) mAb^2 format

binding result [2]: no binding (tested: 1 µM) | binding result [3]: no binding (tested: 1 µM) | binding result [4]: no binding (tested: 1 µM) | binding result [5]: no binding (tested: 1 µM) | binding result [6]: no binding (tested: 1 µM)
B4: FS20-22-41AA/4420 (bispecific antibody, human IgG1, kappa, L234A L235A)
heavy: EVKLDETGGGLVQPGRPMKLSCVASGFTFSDYWMNWVRQSPEKGLEWVAQIRNKPYNYETYYSDSVKGRFTISRDDSKSSVYLQMNNLRVEDMGIYYCTGSYYGMDYWGQGTSVTVSSASTKGPSVFPLAPSSKSTSGGTAALGCLVKDYFPEPVTVSWNSGALTSGVHTFPAVLQSSGLYSLSSVVTVPSSSLGTQTYICNVNHKPSNTKVDKKVEPKSCDKTHTCPPCPAPEAAGGPSVFLFPPKPKDTLMISRTPEVTCVVVDVSHEDPEVKFNWYVDGVEVHNAKTKPREEQYNSTYRVVSVLTVLHQDWLNGKEYKCKVSNKALPAPIEKTISKAKGQPREPQVYTLPPSRDEYWDQEVSLTCLVKGFYPSDIAVEWESNGDEQFAYKTTPPVLDSDGSFFLYSKLTVDQYRWNPGDYFSCSVMHEALHNHYTQKSLSLSPG
light: B3 light
notes: Human IgG1 with anti-FITC 4420 Fab and LALA; The OX40 site is in the CH3 domain; also called FS20-22-41 Fcab in mock (4420 LALA) mAb^2 format

binding result [2]: no binding (tested: 1 µM) | binding result [3]: no binding (tested: 1 µM) | binding result [4]: no binding (tested: 1 µM) | binding result [5]: no binding (tested: 1 µM) | binding result [6]: no binding (tested: 1 µM)
B5: FS20-31-102AA/4420 (bispecific antibody, human IgG1, kappa, L234A L235A)
heavy: EVKLDETGGGLVQPGRPMKLSCVASGFTFSDYWMNWVRQSPEKGLEWVAQIRNKPYNYETYYSDSVKGRFTISRDDSKSSVYLQMNNLRVEDMGIYYCTGSYYGMDYWGQGTSVTVSSASTKGPSVFPLAPSSKSTSGGTAALGCLVKDYFPEPVTVSWNSGALTSGVHTFPAVLQSSGLYSLSSVVTVPSSSLGTQTYICNVNHKPSNTKVDKKVEPKSCDKTHTCPPCPAPEAAGGPSVFLFPPKPKDTLMISRTPEVTCVVVDVSHEDPEVKFNWYVDGVEVHNAKTKPREEQYNSTYRVVSVLTVLHQDWLNGKEYKCKVSNKALPAPIEKTISKAKGQPREPQVYTLPPSRDEWASGEVSLTCLVKGFYPSDIAVEWESNGQPEVDYKTTPPVLDSDGSFFLYSKLTVPYWRWGVPRTFSCSVMHEALHNHYTQKSLSLSPG
light: B3 light
notes: Human IgG1 with anti-FITC 4420 Fab and LALA; The OX40 site is in the CH3 domain; also called FS20-31-102 Fcab in mock (4420 LALA) mAb^2 format

binding result [2]: no binding (tested: 1 µM) | binding result [3]: no binding (tested: 1 µM) | binding result [4]: no binding (tested: 1 µM) | binding result [5]: no binding (tested: 1 µM) | binding result [6]: no binding (tested: 1 µM)
B6: FS20-11-131AA/4420 (bispecific antibody, human IgG1, kappa, L234A L235A)
heavy: B3 heavy with S415N, E423D
light: B3 light
notes: Human IgG1 with anti-FITC 4420 Fab and LALA; The OX40 site is in the CH3 domain; also called FS20-11-131 Fcab in mock (4420 LALA) mAb^2 format

binding result [2]: no binding (tested: 1 µM) | binding result [3]: no binding (tested: 1 µM) | binding result [4]: no binding (tested: 1 µM) | binding result [5]: no binding (tested: 1 µM) | binding result [6]: no binding (tested: 1 µM)
B7: FS20-31-108AA/4420 (bispecific antibody, human IgG1, kappa, L234A L235A)
heavy: B5 heavy with Q387E, P388K, V390I, V420A, P421K
light: B3 light
notes: Human IgG1 with anti-FITC 4420 Fab and LALA; The OX40 site is in the CH3 domain; also called FS20-31-108 Fcab in mock (4420 LALA) mAb^2 format

Source: patent publication US20250361312A1 (INVOX PHARMA, published 2025)
